{"source": "patent US20240425882", "proteins": {"B1": {"name": "human CDKL5, isoform 3 (protein)", "chain": "MKIPNIGNVMNKFEILGVVGEGAYGVVLKCRHKETHEIVAIKKFKDSEENEEVKETTLRELKMLRTLKQENIVELKEAFRRRGKLYLVFEYVEKNMLELLEEMPNGVPPEKVKSYIYQLIKAIHWCHKNDIVHRDIKPENLLISHNDVLKLCDFGFARNLSEGNNANYTEYVATRWYRSPELLLGAPYGKSVDMWSVGCILGELSDGQPLFPGESEIDQLFTIQKVLGPLPSEQMKLFYSNPRFHGLRFPAVNHPQSLERRYLGILNSVLLDLMKNLLKLDPADRYLTEQCLNHPTFQTQRLLDRSPSRNQAGKSTALQSHHRSNSKDIQNLSVGLPRADEGLPANESFLNGNLAGASLSPLHTKTYQASSQPGSTSKDLTNNNIPHLLSPKEAKSKTEFDFNIDPKPSEGPGTKYLKSNSRSQQNRHSFMESSQSKAGTLQPNEKQSRHSYIDTIPQSSRSPSYRTKAKSHGALSDSKSVSNLSEARAQIAEPSTSRYFPSSCLDLNSPTSPTPTRHSDTRTLLSPSGRNNRNEGTLDSRRTTTRHSKTMEELKLPEHMDSSHSHSLSAPHESFSYGLGYTSPFSSQQRPHRHSMYVTRDKVRAKGLDGSLSIGQGMAARANSLQLLSPQPGEQLPPEMTVARSSVKETSREGTSSFHTRQKSEGGVYHDPHSDDGTAPKENRHLYNDPVPRRVGSFYRVPSPRPDNSFHENNVSTRVSSLPSESSSGTNHSKRQPAFDPWKSPENISHSEQLKEKEKQGFFRSMKKKKKKSQTVPNSDSPDLLTLQKSIHSASTPSSRPKEWRPEKISDLQTQSQPLKSLRKLLHLSSASNHPASSDPRFQPLTAQQTKNSFSEIRIHPLSQASGGSSNIRQEPAPKGRPALQLPGQMDPGWHVSSVTRSATEGPSYSEQLGAKSGPNGHPYNRTNRSRMPNLNDLKETAL"}, "B2": {"name": "human cyclin-dependent kinase-like 5 (CDKL5), isoform 1 (protein)", "chain": "MKIPNIGNVMNKFEILGVVGEGAYGVVLKCRHKETHEIVAIKKFKDSEENEEVKETTLRELKMLRTLKQENIVELKEAFRRRGKLYLVFEYVEKNMLELLEEMPNGVPPEKVKSYIYQLIKAIHWCHKNDIVHRDIKPENLLISHNDVLKLCDFGFARNLSEGNNANYTEYVATRWYRSPELLLGAPYGKSVDMWSVGCILGELSDGQPLFPGESEIDQLFTIQKVLGPLPSEQMKLFYSNPRFHGLRFPAVNHPQSLERRYLGILNSVLLDLMKNLLKLDPADRYLTEQCLNHPTFQTQRLLDRSPSRSAKRKPYHVESSTLSNRNQAGKSTALQSHHRSNSKDIQNLSVGLPRADEGLPANESFLNGNLAGASLSPLHTKTYQASSQPGSTSKDLTNNNIPHLLSPKEAKSKTEFDFNIDPKPSEGPGTKYLKSNSRSQQNRHSFMESSQSKAGTLQPNEKQSRHSYIDTIPQSSRSPSYRTKAKSHGALSDSKSVSNLSEARAQIAEPSTSRYFPSSCLDLNSPTSPTPTRHSDTRTLLSPSGRNNRNEGTLDSRRTTTRHSKTMEELKLPEHMDSSHSHSLSAPHESFSYGLGYTSPFSSQQRPHRHSMYVTRDKVRAKGLDGSLSIGQGMAARANSLQLLSPQPGEQLPPEMTVARSSVKETSREGTSSFHTRQKSEGGVYHDPHSDDGTAPKENRHLYNDPVPRRVGSFYRVPSPRPDNSFHENNVSTRVSSLPSESSSGTNHSKRQPAFDPWKSPENISHSEQLKEKEKQGFFRSMKKKKKKSQTVPNSDSPDLLTLQKSIHSASTPSSRPKEWRPEKISDLQTQSQPLKSLRKLLHLSSASNHPASSDPRFQPLTAQQTKNSFSEIRIHPLSQASGGSSNIRQEPAPKGRPALQLPGQMDPGWHVSSVTRSATEGPSYSEQLGAKSGPNGHPYNRTNRSRMPNLNDLKETAL"}, "B3": {"name": "human CDKL5, isoform 4 (protein)", "chain": "MKIPNIGNVMNKFEILGVVGEGAYGVVLKCRHKETHEIVAIKKFKDSEENEEVKETTLRELKMLRTLKQENIVELKEAFRRRGKLYLVFEYVEKNMLELLEEMPNGVPPEKVKSYIYQLIKAIHWCHKNDIVHRDIKPENLLISHNDVLKLCDFGFARNLSEGNNANYTEYVATRWYRSPELLLGAPYGKSVDMWSVGCILGELSDGQPLFPGESEIDQLFTIQKVLGPLPSEQMKLFYSNPRFHGLRFPAVNHPQSLERRYLGILNSVLLDLMKNLLKLDPADRYLTEQCLNHPTFQTQRLLDRSPSRNQAGKSTALQSHHRSNSKDIQNLSVGLPRADEGLPANESFLNGNLAGASLSPLHTKTYQASSQPGSTSKDLTNNNIPHLLSPKEAKSKTEFDFNIDPKPSEGPGTKYLKSNSRSQQNRHSFMESSQSKAGTLQPNEKQSRHSYIDTIPQSSRSPSYRTKAKSHGALSDSKSVSNLSEARAQIAEPSTSRYFPSSCLDLNSPTSPTPTRHSDTRTLLSPSGRNNRNEGTLDSRRTTTRHSKTMEELKLPEHMDSSHSHSLSAPHESFSYGLGYTSPFSSQQRPHRHSMYVTRDKVRAKGLDGSLSIGQGMAARANSLQLLSPQPGEQLPPEMTVARSSVKETSREGTSSFHTRQKSEGGVYHDPHSDDGTAPKENRHLYNDPVPRRVGSFYRVPSPRPDNSFHENNVSTRVSSLPSESSSGTNHSKRQPAFDPWKSPENISHSEQLKEKEKQGFFRSMKKKKKKSQTTDSTNGENPSIKKSLFPLFNSKNHLKHSSSLKKLPVVTPPMVPNSDSPDLLTLQKSIHSASTPSSRPKEWRPEKISDLQTQSQPLKSLRKLLHLSSASNHPASSDPRFQPLTAQQTKNSFSEIRIHPLSQASGGSSNIRQEPAPKGRPALQLPGQMDPGWHVSSVTRSATEGPSYSEQLGAKSGPNGHPYNRTNRSRMPNLNDLKETAL"}, "B4": {"name": "human CDKL5, isoform 2 (protein)", "chain": "MKIPNIGNVMNKFEILGVVGEGAYGVVLKCRHKETHEIVAIKKFKDSEENEEVKETTLRELKMLRTLKQENIVELKEAFRRRGKLYLVFEYVEKNMLELLEEMPNGVPPEKVKSYIYQLIKAIHWCHKNDIVHRDIKPENLLISHNDVLKLCDFGFARNLSEGNNANYTEYVATRWYRSPELLLGAPYGKSVDMWSVGCILGELSDGQPLFPGESEIDQLFTIQKVLGPLPSEQMKLFYSNPRFHGLRFPAVNHPQSLERRYLGILNSVLLDLMKNLLKLDPADRYLTEQCLNHPTFQTQRLLDRSPSRSAKRKPYHVESSTLSNRNQAGKSTALQSHHRSNSKDIQNLSVGLPRADEGLPANESFLNGNLAGASLSPLHTKTYQASSQPGSTSKDLTNNNIPHLLSPKEAKSKTEFDFNIDPKPSEGPGTKYLKSNSRSQQNRHSFMESSQSKAGTLQPNEKQSRHSYIDTIPQSSRSPSYRTKAKSHGALSDSKSVSNLSEARAQIAEPSTSRYFPSSCLDLNSPTSPTPTRHSDTRTLLSPSGRNNRNEGTLDSRRTTTRHSKTMEELKLPEHMDSSHSHSLSAPHESFSYGLGYTSPFSSQQRPHRHSMYVTRDKVRAKGLDGSLSIGQGMAARANSLQLLSPQPGEQLPPEMTVARSSVKETSREGTSSFHTRQKSEGGVYHDPHSDDGTAPKENRHLYNDPVPRRVGSFYRVPSPRPDNSFHENNVSTRVSSLPSESSSGTNHSKRQPAFDPWKSPENISHSEQLKEKEKQGFFRSMKKKKKKSQTTDSTNGENPSIKKSLFPLFNSKNHLKHSSSLKKLPVVTPPMVPNSDSPDLLTLQKSIHSASTPSSRPKEWRPEKISDLQTQSQPLKSLRKLLHLSSASNHPASSDPRFQPLTAQQTKNSFSEIRIHPLSQASGGSSNIRQEPAPKGRPALQLPGQMDPGWHVSSVTRSATEGPSYSEQLGAKSGPNGHPYNRTNRSRMPNLNDLKETAL"}}, "molecular_target": "T1, microtubule-associated protein EB2 (endogenous, mouse brain), Q8R001", "T1 chain": "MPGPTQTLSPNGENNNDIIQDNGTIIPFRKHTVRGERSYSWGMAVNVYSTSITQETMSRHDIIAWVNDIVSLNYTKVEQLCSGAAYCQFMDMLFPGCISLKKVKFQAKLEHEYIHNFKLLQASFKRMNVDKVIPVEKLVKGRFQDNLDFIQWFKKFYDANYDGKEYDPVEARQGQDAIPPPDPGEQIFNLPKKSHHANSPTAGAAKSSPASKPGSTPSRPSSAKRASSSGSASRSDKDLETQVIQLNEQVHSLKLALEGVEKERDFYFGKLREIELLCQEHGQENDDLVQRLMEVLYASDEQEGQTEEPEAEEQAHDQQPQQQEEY", "data": [{"protein": "B1", "values": [{"measurement": "EB2 phosphorylation levels (Western blot, Cdkl5-ko mouse brain)", "result": "by isoforms three or 4 slightly lower compared to isoform 1"}]}, {"protein": "B2", "values": [{"measurement": "EB2 phosphorylation (Cdkl5(D471fs) mouse brain)", "result": "showed robust hCDKL5 protein expression and EB2 phosphorylation 3 months later"}, {"measurement": "EB2 phosphorylation (Cdkl5(R59X) mouse brain)", "result": "showed robust hCDKL5 protein expression and EB2 phosphorylation 3 months later"}, {"measurement": "ability to phosphorylate EB2 (pS222 EB2 Western blot, mouse brain)", "result": "CDKL5 was fully active, as determined by its ability to phosphorylate its endogenous target EB2 protein"}, {"measurement": "kinase activity, blotting for phosphorylated EB2 (Cdkl5-ko mouse brain, 3 months after AAV)", "result": "human CDKL5 showed robust kinase activity when blotting for phosphorylated EB2 protein"}, {"measurement": "substrate phosphorylation by CDKL5 (phospho-EB2 levels, pS222/total EB2, Western blot, brain)", "result": "the observed reduction in substrate phosphorylation by CDKL5 (as determined by phospho-EB2 levels) ... was restored to wild type levels"}]}, {"protein": "B3", "values": [{"measurement": "EB2 phosphorylation levels (Western blot, Cdkl5-ko mouse brain)", "result": "by isoforms three or 4 slightly lower compared to isoform 1"}]}, {"protein": "B4", "values": [{"measurement": "EB2 phosphorylation levels (Western blot, Cdkl5-ko mouse brain)", "result": "EB2 phosphorylation levels generated by isoform 2 were slightly higher ... compared to isoform 1"}]}]}
